For this experiment, the target named is FGF receptor on COS cells. The experiment is described as follows: cell-based or functional assay.

In the case of “FGF2 display phage MF2/1G3 (FGF2-pIII fusion on M13 type 3 phage) (from UniProt P09038 2-155; P69168 19-424)”, the transduction efficiency (GFP positive autofluorescent COS cells) against control phage MEGFP3 worked out at 10 fold.

“free FGF2 (non-biotinylated) (from UniProt P09038 2-155) (ligand)” showed a phagemid particle-dependent transfection of COS-1 cells (fold molar excess) of 100.

The record behind these values is patent US7148202.
